Assay results taken from PMC10683472, “Deep Learning-Driven Library Design for the De Novo Discovery of Bioactive Thiopeptides” (ACS Central Science, 2023).

Columns and labels:
IRAK4 = target: T1, IRAK4 (Homo sapiens, UniProt Q9NWZ3); assay: mRNA display affinity selection against IRAK4, NGS abundance; type: binding; set-up: acids 1-460; NP_057207.2) was purchased from Carna Biosciences; purchased Carna Biosciences (Kobe, Japan); details: Top100 selection hits, NGS
T1 sequence (Q9NWZ3 1-460): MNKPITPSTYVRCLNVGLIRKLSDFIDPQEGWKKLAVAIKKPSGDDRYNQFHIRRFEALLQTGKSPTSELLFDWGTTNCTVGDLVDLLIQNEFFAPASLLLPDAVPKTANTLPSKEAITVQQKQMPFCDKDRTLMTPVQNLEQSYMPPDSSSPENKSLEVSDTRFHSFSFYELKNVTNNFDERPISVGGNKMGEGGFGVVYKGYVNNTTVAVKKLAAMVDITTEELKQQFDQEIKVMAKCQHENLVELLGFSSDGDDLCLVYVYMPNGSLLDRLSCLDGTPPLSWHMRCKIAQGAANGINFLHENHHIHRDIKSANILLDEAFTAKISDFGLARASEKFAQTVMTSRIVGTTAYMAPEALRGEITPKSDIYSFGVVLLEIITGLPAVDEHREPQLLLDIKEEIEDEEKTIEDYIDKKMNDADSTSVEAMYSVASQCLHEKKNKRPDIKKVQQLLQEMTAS

TLR10 = target: T2, TLR10 (Homo sapiens, UniProt Q9BXR5); assay: mRNA display affinity selection against TLR10, NGS abundance; type: binding; set-up: Chimera protein (extracellular domain, amino acid 20-576;); Fc (chimera); purchased R&D system #6619-TR-050; details: Top100 selection hits, NGS
T2 sequence (Q9BXR5 20-576): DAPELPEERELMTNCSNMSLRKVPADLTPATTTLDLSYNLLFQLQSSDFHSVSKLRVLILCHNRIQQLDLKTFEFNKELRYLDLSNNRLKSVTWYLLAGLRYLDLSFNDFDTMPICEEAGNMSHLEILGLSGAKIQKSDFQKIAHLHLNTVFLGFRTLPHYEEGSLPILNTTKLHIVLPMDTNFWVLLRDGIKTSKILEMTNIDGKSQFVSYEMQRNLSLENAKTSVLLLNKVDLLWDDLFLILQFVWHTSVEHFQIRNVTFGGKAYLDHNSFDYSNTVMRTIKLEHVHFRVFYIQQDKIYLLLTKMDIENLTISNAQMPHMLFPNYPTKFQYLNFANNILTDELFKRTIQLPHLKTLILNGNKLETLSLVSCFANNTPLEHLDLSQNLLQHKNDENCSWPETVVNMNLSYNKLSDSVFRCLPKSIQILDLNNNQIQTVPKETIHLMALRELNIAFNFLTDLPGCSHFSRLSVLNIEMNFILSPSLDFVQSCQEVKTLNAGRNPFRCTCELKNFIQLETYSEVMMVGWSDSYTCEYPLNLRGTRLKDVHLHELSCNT

Row | Sequence | Library fraction (TLR10; TLR10 selection pulldown (+)) | Raw reads (TLR10; TLR10 selection pulldown (+)) | Library fraction (TLR10; TLR10 selection pulldown (-)) | Raw reads (TLR10; TLR10 selection pulldown (-)) | further results
1 | AIRWKNRNYK | – | – | – | – | Library fraction (IRAK4; IRAK4 selection pulldown (+)): 0.0009; Raw reads (IRAK4; IRAK4 selection pulldown (+)): 95; Library fraction (IRAK4; IRAK4 selection pulldown (-)): 0.00032; Raw reads (IRAK4; IRAK4 selection pulldown (-)): 43
2 | SIETTNMVLL | 0.00031 | 30 | – | – | –
3 | SIKFVFQGKLAI | 0.00046 | 45 | – | – | –
4 | SILFPHQQKLLF | 0.00044 | 43 | – | – | –
5 | SILFSIQNKLVL | 0.00021 | 20 | – | – | –
6 | SIMFALQQKLLF | 0.004 | 389 | 0.00189 | 226 | –
7 | SIMIYCNQKIRG | 0.00114 | 111 | – | – | –
8 | SIQFKVLQKLAF | 0.00018 | 18 | – | – | –
9 | SITFPMQRHIAF | – | – | 0.00112 | 133 | –
10 | SITFQTLNKIAY | – | – | 0.006 | 714 | –
11 | SIVFHLTNKMAF | 0.004 | 391 | 0.004 | 462 | –
12 | SIWFPLQRKIAA | 0.00746 | 727 | 0.026 | 3115 | –
13 | SIYFEKAEKVAF | 0.00071 | 69 | – | – | –
14 | SKIIIRGQGIRG | – | – | 0.00238 | 284 | –
15 | SKIIWSNQAIRG | – | – | 0.007 | 798 | –
16 | SKQVYHKQTIVG | 0.00063 | 61 | – | – | –
17 | SLEFPHLVIH | 0.00028 | 27 | – | – | –
18 | SLELKHIVFH | – | – | 0.00222 | 265 | –
19 | SLELSRVNVVIH | – | – | 0.00163 | 194 | –
20 | SLETNSVVWI | 0.00021 | 20 | – | – | –
21 | SLETSHLVIY | 0.00035 | 34 | – | – | –
22 | SMCVWARQKIVG | 0.00071 | 69 | 0.00054 | 64 | –
23 | SMEFVKIPLVIH | 0.00041 | 40 | – | – | –
24 | SMHYRFLCKIAF | – | – | 0.001 | 117 | –
25 | SMLFRLANKIAF | – | – | 0.040 | 4812 | –
26 | SMLLPMQRVVMF | 0.00018 | 18 | – | – | –
27 | SMLVWKGQSIRG | 0.004 | 408 | 0.002 | 248 | –

Row | Sequence | Library fraction (TLR10; TLR10 selection pulldown (+)) | Raw reads (TLR10; TLR10 selection pulldown (+)) | Library fraction (TLR10; TLR10 selection pulldown (-)) | Raw reads (TLR10; TLR10 selection pulldown (-)) | further results
28 | SMYFESLNKLAV | – | – | 0.00044 | 52 | –
29 | SNIVWCGQGIIG | 0.168 | 16419 | 0.077 | 9156 | –
30 | SNSNRYGGLITS | 0.045 | 4431 | 0.005 | 582 | –
31 | SNVIYARQHIIG | 0.0005 | 49 | – | – | –
32 | SPIHFRSVL | 0.00047 | 46 | – | – | –
33 | SQFNHAMGWYVN | – | – | 0.00131 | 156 | –
34 | SRIIYMNQSIRG | – | – | 0.00043 | 51 | –
35 | SRTIYRCQSIRG | 0.008 | 777 | 0.00125 | 149 | –
36 | SRTNRFGGHMAS | 0.168 | 16419 | 0.008 | 995 | –
37 | SSPNRYGGNVNT | 0.00122 | 119 | 0.00077 | 92 | –
38 | SSTVWKLQTICG | – | – | 0.00046 | 55 | –
39 | SSYVYHKQRIRG | 0.00022 | 21 | – | – | –
40 | STHIYSKQGIRG | 0.004 | 409 | 0.001 | 116 | –
41 | STIVFKHQQISG | 0.00018 | 18 | – | – | –
42 | STIVFTFQCIKG | 0.012 | 1142 | 0.008 | 919 | –
43 | STKNQYGGWSPA | 0.00034 | 33 | – | – | –
44 | STLFFMFQGIRG | 0.00019 | 19 | – | – | –
45 | STLIYKLQCILG | 0.0008 | 78 | – | – | –
46 | SVCVYQHQGIRG | 0.035 | 3411 | 0.010 | 1149 | –
47 | SVDFGQVVIH | – | – | 0.00054 | 65 | –
48 | SVEVWVNQKIRG | – | – | 0.003 | 343 | –
49 | SVIFNLLRQVAY | 0.00017 | 17 | – | – | –
50 | SVMNVFGGNAAT | 0.00029 | 28 | – | – | –
51 | SVPFPLQRKLVF | 0.005 | 482 | 0.00118 | 141 | –
52 | SVSFPLQRKLVF | 0.00065 | 63 | – | – | –
53 | SVVVWHAQPIMG | – | – | 0.006 | 714 | –
54 | TCFSHYLIM | – | – | 0.002 | 237 | –

Row | Sequence | Library fraction (TLR10; TLR10 selection pulldown (+)) | Raw reads (TLR10; TLR10 selection pulldown (+)) | Library fraction (TLR10; TLR10 selection pulldown (-)) | Raw reads (TLR10; TLR10 selection pulldown (-)) | further results
55 | TFLGGNVRAWI | – | – | 0.00088 | 105 | –
56 | TIELTHAYLH | – | – | 0.00054 | 64 | –
57 | TIKFPRLQMLAI | 0.00066 | 64 | – | – | –
58 | TILFPLQRRLVV | – | – | 0.0018 | 215 | –
59 | TILFSLQNVRAF | 0.00137 | 134 | 0.0033 | 394 | –
60 | TIRFTNQNKIAF | 0.038 | 3740 | 0.095 | 11292 | –
61 | TIYFKLQKAVAL | 0.00055 | 54 | – | – | –
62 | TLELKAIVFH | – | – | 0.00044 | 52 | –
63 | TLELQSVVLH | 0.00033 | 32 | – | – | –
64 | TLHFRRQNKIAY | 0.020 | 1927 | 0.011 | 1314 | –
65 | TMCFTFSKMVAF | – | – | 0.00058 | 69 | –
66 | TMFFRRQNAMAL | 0.00074 | 72 | – | – | –
67 | TMHFSNQRKLVF | 0.00022 | 21 | – | – | –
68 | TMLFRLQSKLAI | – | – | 0.013 | 1571 | –
69 | TMMFPHQRKLAF | – | – | 0.009 | 1056 | –
70 | TMMFPRLGKVAY | 0.00528 | 515 | 0.003 | 351 | –
71 | TMQFPLQRRMAI | 0.00468 | 456 | 0.002 | 241 | –
72 | TNPYGGNITM | 0.015 | 1427 | 0.00949 | 1132 | –
73 | TNPYGGNVGW | 0.143 | 13980 | 0.238 | 28345 | –
74 | TYWKACAMSHIP | 0.00237 | 231 | 0.00056 | 67 | –
75 | VGQVLVKSS | 0.00061 | 59 | 0.00086 | 102 | –
76 | VGRVYIKSS | 0.00258 | 251 | 0.00364 | 434 | –
77 | VGYVLVKSS | 0.00033 | 32 | – | – | –
78 | VQLHRWGLRM | 0.00032 | 31 | – | – | –
79 | WCGATLYSSIS | 0.00024 | 23 | – | – | –
80 | WPGSMARDSIS | 0.013 | 1282 | 0.018 | 2179 | –
